± gives the uncertainty stated by the source.
Assay: self-splicing fitness, log relative to wild type (ln ratio); higher = more splicing; Tetrahymena group I intron in knt gene, E. coli kanamycin selection, DiMSum; sequences stand for … in CUCUCU…GGAGGGAAAAGUUAUCAGGCAUGCACCUGGUAGCUAGUCUUUAAACCAAUAGAUUGCAUCGGUUUAAAAGGCAAGACCGUCAAAUUGCGGGAAAGGGGUCAACAGCCGUUCAGUACCAAGUCUCAGGGGAAACUUUGAGAUGGCCUUGCAAAGGGUAUGGUAAUAAGCUGACGGACAUGGUCCUAACCACGCAGCCAAGUCCUAAGUCAACAGAUCUUCUGUUGAUAUGGAUGCAGUUCACAGACUAAAUGUCGGUCGGGGAAGAUGUAUUCUUCUCAUAAGAUAUAGUCGGACCUCUCCUUAAUGGGAGCUAGCGGAUGAAGUGAUGCAACACUGGAGCCGCUGGGAACUAAUUUGUAUGCGAAAGUAUAUUGAUUAGUUUUGGAGUACUCGUGGUCG
Summary of the method: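 Fitness was computed with DiMSum as the error-weighted combination of replicate fold changes, kanamycin versus none, each normalised to wild type. The library randomised all eight intron nucleotides of the P1ex region, with the intron placed in the knt kanamycin-resistance gene on pET-22b(+) in E. coli BL21(DE3). Six replicate transformations were grown overnight at 37°C or 30°C on LB agar with or without 25 μg/mL kanamycin, plus 100 μg/mL carbenicillin, 50 μM IPTG and 0.2% rhamnose. Pooled colonies were amplicon-sequenced on an Illumina HiSeq 2500.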

| Sequence | self-splicing fitness (ln) (30 °C) | self-splicing fitness (ln) (37 °C) |
| --- | --- | --- |
| UGAUAGCAAUAUUACGAUCG | -0.236 ± 0.14 | -0.942 ± 0.15 |
| GUUAAGCAAUAUUACGCCUU | -0.286 ± 0.071 | 0.261 ± 0.096 |
| GAGAAGCAAUAUUACGUCUC | -4.38 ± 0.46 | -2.39 ± 0.24 |
| CCCUAGCAAUAUUACGGAGC | -3.31 ± 0.21 | -2.22 ± 0.23 |
| GGACAGCAAUAUUACGUUGA | -0.48 ± 0.07 | 0.279 ± 0.098 |
| UUCUAGCAAUAUUACGUUUA | -1.43 ± 0.16 | -1.45 ± 0.12 |
| AAAUAGCAAUAUUACGACAG | -2.02 ± 0.13 | -1.34 ± 0.16 |
| UGAUAGCAAUAUUACGAAUG | -1.19 ± 0.12 | -1.14 ± 0.16 |
| GUUCAGCAAUAUUACGAUGU | -0.419 ± 0.075 | 0.31 ± 0.11 |
| GGUAAGCAAUAUUACGUCCG | -0.859 ± 0.11 | -0.41 ± 0.15 |
| CAUGAGCAAUAUUACGCGCG | -1.29 ± 0.15 | 0.0218 ± 0.14 |
| ACUUAGCAAUAUUACGUGAA | -2.94 ± 0.15 | -1.5 ± 0.12 |
| AUUCAGCAAUAUUACGCCUC | -1.43 ± 0.15 | 0.286 ± 0.16 |
| AAGGAGCAAUAUUACGAGCA | -2.24 ± 0.45 | -0.592 ± 0.4 |
| UGAGAGCAAUAUUACGCCUG | -2.46 ± 0.21 | -1.91 ± 0.32 |
| CGUUAGCAAUAUUACGCGCA | -1.01 ± 0.29 | -0.131 ± 0.47 |
| CAGAAGCAAUAUUACGAUAU | -3.56 ± 0.2 | -2.53 ± 0.15 |
| GUAAAGCAAUAUUACGUCUG | -1.56 ± 0.11 | 0.0989 ± 0.11 |
| UCUGAGCAAUAUUACGCUCA | -2.29 ± 0.24 | -2.09 ± 0.28 |
| UCGUAGCAAUAUUACGUAUU | -3.9 ± 0.28 | -0.594 ± 0.14 |
| ACAGAGCAAUAUUACGUCCU | -1.35 ± 0.21 | -0.399 ± 0.2 |
| ACUGAGCAAUAUUACGAGCA | -2.63 ± 0.27 | -1.42 ± 0.19 |
| UCCGAGCAAUAUUACGUACG | -3.62 ± 0.47 | -2.34 ± 0.45 |
| UGUAAGCAAUAUUACGUUCU | -0.123 ± 0.085 | -0.0225 ± 0.1 |
| CCGAAGCAAUAUUACGUGCA | -3.4 ± 0.3 |  |

| Sequence | self-splicing fitness (ln) (30 °C) | self-splicing fitness (ln) (37 °C) |
| --- | --- | --- |
| AUAUAGCAAUAUUACGCUGA | -1.3 ± 0.2 | -1.15 ± 0.24 |
| UACAAGCAAUAUUACGUGAC | -3.89 ± 0.18 | -1.85 ± 0.1 |
| CCAGAGCAAUAUUACGGAGU | -3.32 ± 0.21 | -3.21 ± 0.28 |
| CGAGAGCAAUAUUACGAUCC | -3.95 ± 0.46 | -2.36 ± 0.28 |
| UUUGAGCAAUAUUACGAGUA |  | -1.86 ± 0.21 |
| CCGAAGCAAUAUUACGCGGA | -3.61 ± 0.43 | -1.78 ± 0.19 |
| UCAGAGCAAUAUUACGUCUA | -3.04 ± 0.29 | -2.35 ± 0.3 |
| AGCUAGCAAUAUUACGACAA | -1.68 ± 0.18 | -1.34 ± 0.15 |
| CGAAAGCAAUAUUACGAGAG | -3.12 ± 0.17 | -2.58 ± 0.18 |
| GGGAAGCAAUAUUACGCUAU | -2.75 ± 0.19 | -0.951 ± 0.14 |
| UGAGAGCAAUAUUACGGCCG | -3.57 ± 0.43 | -1.38 ± 0.25 |
| UGACAGCAAUAUUACGUCUC | -4.29 ± 0.34 | -1.47 ± 0.22 |
| CAUAAGCAAUAUUACGCGUU | -3.3 ± 0.15 | -1.55 ± 0.13 |
| GUUCAGCAAUAUUACGCUAU | -1.32 ± 0.081 | -0.451 ± 0.092 |
| CUAGAGCAAUAUUACGAAGC | -0.938 ± 0.42 | -1.45 ± 0.43 |
| GGGAAGCAAUAUUACGUCAC | -3.08 ± 0.2 | -1.77 ± 0.19 |
| GUAGAGCAAUAUUACGUAAU | -2.04 ± 0.13 | -0.878 ± 0.12 |
| GUGUAGCAAUAUUACGUAUC | -1.01 ± 0.29 |  |
| GGCUAGCAAUAUUACGAGAU | -3.58 ± 0.21 | -1.34 ± 0.14 |
| CCCCAGCAAUAUUACGUGAC | -2.7 ± 0.11 | -3.24 ± 0.21 |
| GAUAAGCAAUAUUACGCGUU | -2.05 ± 0.14 | -2.95 ± 0.32 |
| CCAAAGCAAUAUUACGGCAA | -3.15 ± 0.27 | -2.73 ± 0.25 |
| GCUCAGCAAUAUUACGCACU | 0.181 ± 0.11 | 0.213 ± 0.14 |
| GGCGAGCAAUAUUACGAGUC | -1.61 ± 0.36 |  |
